Test results reported in patent publication US20110014125.

Key:
[1] = tested on: Fe/Fe3O4 nanoparticle-TCPP assemblies featuring the urokinase cleavage sequence
[2] = tested on: T1, oligopeptide CGGGSGRSAGGGC (SEQ ID NO: 35) linking two gold nanoparticles (Au-Au nanoparticle assembly)
T1 sequence: CGGGSGRSAGGGC

[3] = tested on: T2, oligopeptide CGGGSGRSAGGGC (SEQ ID NO: 35) tethering Zn-TCPP and TCPP porphyrins to a stealth-protected Fe/Fe3O4 nanoparticle
T2 sequence: CGGGSGRSAGGGC

[4] = tested on: T3, oligopeptide SRSRSRSRSRSGRSAGGGC (SEQ ID NO: 18) as spacer between a pyrene fluorophore and a coumarin acceptor
T3 sequence: SRSRSRSRSRSGRSAGGGC

urokinase was tested, and the “cleavage rate (rate constant k from TCPP luminescence at 656 nm vs. time)” value [1] was “the cleavage rate increases by 3-5 times per order of magnitude of increase in urokinase concentration”, the “maximum of the gold plasmon absorption (UV/Vis absorption, after 180 seconds with urokinase)” value [2] was “shift from 523 nm to 517 nm within 180 seconds” and the “maximum of the gold plasmon absorption (UV/Vis absorption, before cleavage)” value [2] was “shift from 523 nm to 517 nm within 180 seconds”. The “fluorescence band at 607 nm over 0-6 minutes” value [3] was “distinct decrease of the fluorescence band at λ1=607 nm” and the “coumarin emission (FRET from pyrene, excitation 280 nm) over 0-15 minutes” value [4] was “The coumarin emission decreases with time”.
